Data taken from patent US20220135661A1 (University of Pennsylvania, published 2022).

B1: Syn9068.13.01 (antibody, IgG1, V domains shown)
VH: EVHLVESGGGLVQPKGSLKLSCAASGFTFNTYAMHWVRQAPGKGLEWVARIRNKSNNYATYYADSVKDRFTISRDDSQSMLFLQMDNLKTEDTAIYYCVRGGLSPFDYWGQGTTLTVSS
VL: QIVLTQSPAIMSASPGEKVTMTCSASSSVTYMHWYQQKSGTSPKRWIYDTSKLASGVPARFSGSGSGTSYSLTISSMEAEDAATYYCQQWSSNPPTFGGGTKLEIR
notes: also called mAb Syn9068.13.01; MHC993
B2: Syn9063.26.22 (antibody, IgG2b, V domains shown)
VH: QVQLKQSGPGLVQPSQSQSLTCTVSGFSLTSYGVHWVRQPLGKGLEWLGVIWSGGSTDYNAAFISRLSIRKDNSKSQVFFKMNSLQADDTAIYYCARTFTTSTSAWFAYWGQGTLVTVSA
VL: QIVLTQSPAIMSASPGEKVTMTCSASSSVSYMYWYQQKPGSSPRLLIYDTSKLASGVPVRFSGSGSGTSYSLTISRMEAEDAATYYCQQWRSYPPTFGAGTKLELK
notes: also called mAb Syn9063.26.22; MHC978
B3: Syn9048.04.07 (antibody, IgG1, V domains shown)
VH: QVQLQQSGPELVKPGASVRISCKASGYTFTTFYLHWVKQRPGQGLEWIGWIYPVNVKIKYSERFKGKATLTADKSSSTAYMQLGSLTSEDSAVYFCVRGGRGLDYWGQGTTLTVSS
VL: NIMMTQSPSSLAVSAGEKVTMSCKSSQSVLYSSNQKNYLAWYQQKPGQSPKMLIYWASFRESGVPDRFTGSGSGTDFTLTISSVQAEDLAVYYCHQYLSLFTFGSGTKLEIK
notes: also called mAb Syn9048.04.07; MHC992

Columns and labels:
[1] = target: T1, recombinant human preformed α-Synuclein fibrils (human, UniProt P37840 1-140); test: cell-based or functional assay
[2] = target: recombinant mouse preformed α-Synuclein fibrils (mouse, UniProt O55042 1-140); test: cell-based or functional assay
[3] = target: human α-Synuclein (form not stated) (human, UniProt P37840 1-140); test: direct ELISA; human αSyn against mouse αSyn as reference
[4] = target: T1, recombinant human preformed α-Synuclein …; test: sandwich ELISA, mAb coated, MJF-R1 reporter; human PFFs against human monomer as reference
Protocol: FIG. 1A is a pair of graphs depicting the affinity of mAb Syn9063.26.22 for human monomeric (top) and fibrillar (PFF) (bottom) α-Syn measured by sandwich ELISA. 384-well plates were coated with 0.3 μg of the indicated mAb. After blocking, these were incubated with various concentrations of α-Syn monomer or PFFs (expressed as monomer equivalent concentration) as indicated. MJF-R1 was used as a reporter antibody to determine affinity for each form of α-Syn. FIG. 1B is a pair of graphs depicting the affinity of mAb Syn9048.04.07 for human monomeric (top) and fibrillar (PFF) (bottom) α-Syn measured by sandwich ELISA. 384-well plates were coated with 0.3 μg of the indicated mAb. After blocking, these were incubated with various concentrations of α-Syn monomer or PFFs (expressed as monomer equivalent concentration) as indicated. MJF-R1 was used as a reporter antibody to determine affinity for each form of α-Syn. FIG. 1C is a pair of graphs depicting the affinity of mAb Syn9068.13.01 for human monomeric (top) and fibrillar (PFF) (bottom) α-Syn measured by sandwich ELISA. […] After blocking, these were incubated with various concentrations of α-Syn monomer or PFFs (expressed as monomer equivalent concentration) as indicated. […]
The affinity of three mAbs from the 9000 series for human monomeric and fibrillar (PFF) α-Syn was measured by sandwich ELISA. […]

Binder	Inhibition in neuron assay (Hu PFFs) [1]	Inhibition in neuron assay (Ms PFFs) [2]	Recognition of Hu vs. Ms αSyn (fold) [3]	Selective binding to PFFs (fold over monomer) [4]
B1	85%	~90%	1 fold	–
B2	80%	50%	1.1 fold	100 fold
B3	> 95%	> 95%	1.4 fold	30 fold
